Earlier results as cited in article PMC11945212.

Molecular target: Adducin (Homo sapiens) (UniProt P35611)
UniProt P35611, sequence (P35611 whole entry, chain 1 of 2): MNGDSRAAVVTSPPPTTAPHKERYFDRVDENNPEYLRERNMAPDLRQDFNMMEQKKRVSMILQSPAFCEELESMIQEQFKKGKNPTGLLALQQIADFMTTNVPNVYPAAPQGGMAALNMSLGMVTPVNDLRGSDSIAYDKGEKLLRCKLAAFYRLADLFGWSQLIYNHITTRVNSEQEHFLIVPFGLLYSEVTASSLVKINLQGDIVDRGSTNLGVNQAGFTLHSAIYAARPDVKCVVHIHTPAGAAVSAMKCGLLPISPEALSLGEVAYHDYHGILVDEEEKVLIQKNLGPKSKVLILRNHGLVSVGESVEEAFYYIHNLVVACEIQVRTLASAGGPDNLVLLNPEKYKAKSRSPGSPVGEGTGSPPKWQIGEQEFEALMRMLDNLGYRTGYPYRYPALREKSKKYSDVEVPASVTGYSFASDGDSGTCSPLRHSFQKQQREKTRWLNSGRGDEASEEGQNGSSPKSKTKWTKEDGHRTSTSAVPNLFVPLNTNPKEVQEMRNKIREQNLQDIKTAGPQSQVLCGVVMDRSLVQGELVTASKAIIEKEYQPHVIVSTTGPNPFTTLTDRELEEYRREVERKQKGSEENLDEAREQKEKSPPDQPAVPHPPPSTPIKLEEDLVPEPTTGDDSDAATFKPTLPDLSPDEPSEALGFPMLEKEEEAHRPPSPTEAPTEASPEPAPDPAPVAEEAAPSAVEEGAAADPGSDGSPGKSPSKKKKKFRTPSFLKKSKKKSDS
UniProt P35611, sequence (P35612 whole entry, chain 2 of 2, further chain): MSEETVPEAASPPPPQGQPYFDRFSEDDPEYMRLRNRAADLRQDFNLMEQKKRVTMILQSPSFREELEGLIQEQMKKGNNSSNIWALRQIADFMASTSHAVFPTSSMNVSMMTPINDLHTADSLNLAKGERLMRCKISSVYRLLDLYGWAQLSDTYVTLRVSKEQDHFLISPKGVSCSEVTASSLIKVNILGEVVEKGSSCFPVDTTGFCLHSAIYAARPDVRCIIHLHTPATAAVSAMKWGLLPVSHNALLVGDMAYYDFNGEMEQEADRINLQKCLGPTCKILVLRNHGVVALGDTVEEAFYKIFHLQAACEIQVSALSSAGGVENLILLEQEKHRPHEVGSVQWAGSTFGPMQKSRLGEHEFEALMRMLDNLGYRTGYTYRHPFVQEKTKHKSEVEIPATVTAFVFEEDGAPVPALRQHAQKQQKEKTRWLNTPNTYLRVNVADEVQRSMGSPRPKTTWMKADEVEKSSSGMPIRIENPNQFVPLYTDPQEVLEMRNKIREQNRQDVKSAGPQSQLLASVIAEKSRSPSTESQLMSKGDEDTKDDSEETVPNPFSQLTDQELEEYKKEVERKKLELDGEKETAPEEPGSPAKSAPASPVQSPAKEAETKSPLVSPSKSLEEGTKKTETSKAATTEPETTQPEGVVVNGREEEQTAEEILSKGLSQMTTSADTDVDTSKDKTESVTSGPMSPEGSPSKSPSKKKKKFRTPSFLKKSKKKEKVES

Band 3 (from UniProt P02730)
Kd: 0.1 µM
